Experimental data from paper PMC12167710.

Assays:
[1] = molecular target: recombinant human IgG1λ isotype control antibody (clone AbD00264_hIgG1) (human)
[2] = molecular target: recombinant mouse IgG1κ isotype control antibody (clone P3.6.2.8.1) (mouse)

| Kd [1] [pM] | Kd [2] [pM] | Binder |
| --- | --- | --- |
| 1350 | – | anti-human λ VHH (HuFab lambda 1) (VHH) VHH: QVQLQDSGGGLVQPGGSLRLSCAASGFTLDYYAIGWFRQAPGKEREGVSCISSSDGSSDGYTYYADSVKGRFTISRDNAKNTVYLQMNNLKPEDTAVYYCAARLFGVATTDPSYFDSWGQGTQVTVSS |
| – | 16.7 | anti-mouse κ VHH (TP1170) (VHH) VHH: QVQLVESGGGWVQPGGSLRLSCAASGFTFSDTAMMWVRQAPGKGREWVAAIDTGGGYTYYADSVKGRFTISRDNAKNTLYLQMNSLKPEDTARYYCAKTYSGNYYSNYTVANYGTTGRGTLVTVSS |
